# B1: conalbumen: transferrin (ovotransferrin or conalbumen) extracted in a pure state from egg white (protein, UniProt P02789 20-705, looked up)
# Ovotransferrin: APPKSVIRWCTISSPEEKKCNNLRDLTQQERISLTCVQKATYLDCIKAIANNEADAISLDGGQAFEAGLAPYKLKPIAAEVYEHTEGSTTSYYAVAVVKKGTEFTVNDLQGKTSCHTGLGRSAGWNIPIGTLLHRGAIEWEGIESGSVEQAVAKFFSASCVPGATIEQKLCRQCKGDPKTKCARNAPYSGYSGAFHCLKDGKGDVAFVKHTTVNENAPDQKDEYELLCLDGSRQPVDNYKTCNWARVAAHAVVARDDNKVEDIWSFLSKAQSDFGVDTKSDFHLFGPPGKKDPVLKDLLFKDSAIMLKRVPSLMDSQLYLGFEYYSAIQSMRKDQLTPSPRENRIQWCAVGKDEKSKCDRWSVVSNGDVECTVVDETKDCIIKIMKGEADAVALDGGLVYTAGVCGLVPVMAERYDDESQCSKTDERPASYFAVAVARKDSNVNWNNLKGKKSCHTAVGRTAGWVIPMGLIHNRTGTCNFDEYFSEGCAPGSPPNSRLCQLCQGSGGIPPEKCVASSHEKYFGYTGALRCLVEKGDVAFIQHSTVEENTGGKNKADWAKNLQMDDFELLCTDGRRANVMDYRECNLAEVPTHAVVVRPEKANKIRDLLERQEKRFGVNGSEKSKFMMFESQNKDLLFKDLTKCLFKVREGTTYKEFLGDKFYTVISSLKTCNPSDILQMCSFLEGK
# Columns and labels:
# [1] = tested on: male and female rat (Sprague-Dawley); experiment: Acute toxicity on single administration, male and female rat (Sprague-Dawley); type: in vivo; details: for Mortality after 7 days: 1000 mg/kg single dose, 10 rats per dose; for LD50: single administration, 7 days
# Protocol: (a) Toxicity on single administration.
# The experiment was conducted on rats and mice (male and female) by oral and intraperitoneal administration of conalbumen dissolved in double-distilledsterile water. The animals were kept under control for 7 days following the administration.
# Acute toxicity of the product after a single admini-
# stration to the male and female rat (Sprague-Dawley).
# [2] = tested on: children affected by acute initial gastroenteropathy; experiment: Clinical efficacy test in 32 children with acute initial gastroenteropathy vs chemiantibiotic group; type: in vivo
# Protocol: The tests were conducted on a group of 32 children (14 males, 18 females) of an age group comprised between 2 months and 2 years, affected by acute initial gastroenteropathy.
# The test group comprised forms of substantial gravity (15.6% of the total cases), forms of intermediate gravity (43.7%), and finally forms of least gravity (40.6%), determined by known clinical diagnostic methods.
# In all cases, in addition to the oral or parental rehydration (in 21.8% of the cases there was actually performed a parental rehydration with glucosaline and polyelectric solutions) and to the usual dietetic treatment, there was performed symptomatic therapy with anticholinergic agents.
# The product was administered orally to all the test subjects at a dosage of 300 mg. per day, divided into three equal doses.
# The duration of the therapy varied from a minimum of 5 days to a maximum of 10 days.
# It was thought opportune, on a clinical plane, to evaluate the test results according to the following parameters:
# (1) average time of normalization of the abdomen.
# (2) number and percentage of the cases with regularization of the abdomen within the first 48 hours (see Table II and figure 1).
# (3) average duration of the time of therapy.
# There was further compared the test subjects with a group of subjects of similar age and equally affected by acute initial gastroenteropathy which had received, in addition to the usual symptomatic and dietetic therapy, a chemiantibiotic treatment.
# It is important to note that this second group presented a clinical physionomy similar to that of the test group (and therefore with a percentage division equal between forms of different gravity) and further belonging chronologically to the same epidemiological period.
# [3] = Storage stability of the liophylized product; type: physicochemical
# [4] = tested on: germs which are pathogenic to man; experiment: Treatment of experimental infections in laboratory animals; type: in vivo; details: laboratory animals injected with germs pathogenic to man
# experimental animals = experiment: Tolerability in experimental animals at therapeutically active doses; type: in vivo
# [5] = 32 cases per group, product oral 300 mg per day in three doses
# [6] = percentage distribution, drawing
# [7] = product vs chemiantibiotics group
molecule,measurement,setting,value
B1,Mortality after 7 days,"[1]; female 90-105 g, oral",0/10
same,LD50,"[1]; female 90-105 g, oral",> 1000 mg/kg
same,Mortality after 7 days,"[1]; female 100-110 g, i.p.",0/10
same,LD50,"[1]; female 100-110 g, i.p.",> 1000 mg/kg
same,Mortality after 7 days,"[1]; male 100-120 g, i.p.",0/10
same,LD50,"[1]; male 100-120 g, i.p.",> 1000 mg/kg
same,Mortality after 7 days,"[1]; male 100-130 g, oral",0/10
same,LD50,"[1]; male 100-130 g, oral",> 1000 mg/kg
same,Average time of Therapy,[2]; [5],"6,1 days"
same,Percentage normalization within 48 hours,[2]; [5],"53,1 Percentage"
same,Average time of normalization of the abdomen,"[2]; 32 cases per group, product oral 300 mg per day in three doses, p <0,40","2,56"
same,No. of cases with normalization within 48 hours,"[2]; of 32 cases per group, product oral 300 mg per day in three doses",17
same,Clinical results,[2]; overall,very favorable
same,Clinical results with respect to the group treated with chemiantibiotics,[2]; overall comparison,definitely better
same,"Distribution in the time of normalization of the abdomen, days with most cases",[2]; [6],between the second and third day
same,Peak in the time of normalization of the abdomen,[2]; [6],second day
same,"Average time of normalization of the abdomen, comparison with chemiantibiotics",[2]; [7],slightly lower
same,"Number of cases and percentage of normalization of the abdomen within the first 48 hours, comparison with chemiantibiotics",[2]; [7],higher
same,Maintains its properties unchanged,"[3]; liophylized, kept at ambient or lower temperature",at least 6 months
same,Period for which the product can be kept,"[3]; vials containing 100 mg. or more, liophylized form",indefinite periods
same,Efficacy in experimental infections,[4],surprising efficacy
same,Toxic manifestation or significant side effects,experimental animals,does not result in toxic manifestation or in significant side effects

# Reference: patent publication US4029771A, “Composition for the treatment of bacterial-intestinal infections” (priority 1975, dated 1977)
